# Laboratory results reported in the supplement of paper PMC9732359.
# ± gives the uncertainty stated by the source.
# Assay: protein stability index of a GFP-peptide fusion (yeast GPS) (PSI 1-4); higher = more stable; sorted into four equal gates, so the index is relative within each strain
# Procedure, shortened: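 Mid-log yeast cultures in leucine-free medium, carrying a pooled plasmid library, were sorted into four equal gates by their GFP/Cherry fluorescence ratio. Each plasmid expressed Cherry along with GFP fused upstream of a tiled 17-residue yeast protein peptide. Plasmids recovered from each gate were PCR-amplified and Illumina-sequenced, with reads assigned to strains by barcodes. The protein stability index was obtained by summing each gate's read frequency weighted by its gate number.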
Sequence,protein stability index (doa10∆),protein stability index (pdr5∆),protein stability index (san1∆),protein stability index (ubr1∆)
HHELVPKHIRLSSDEKR [RPB5],2.9 ± 0.12,3.54 ± 0.12,2.82 ± 0.18,3.16 ± 0.073
HHFTCEITGTSCLTFFQ [ITC1],1.9 ± 0.05,2.2 ± 0.057,2.04 ± 0.078,2.07 ± 0.047
HHRIFDSSAHFKGALTI [YMR129W/POM152],2.56 ± 0.073,2.73 ± 0.084,2.44 ± 0.14,2.62 ± 0.053
HICGICGLMTVIAKLNH [RPB2],1.65 ± 0.077,1.33 ± 0.08,1.23 ± 0.14,1.43 ± 0.066
HIFQVEYALEAVKRGTC [PRE6],2.76 ± 0.15,2.75 ± 0.13,2.54 ± 0.19,2.77 ± 0.19
HILAVKKMMNTLVHTRV [SSN2],2.25 ± 0.056,2.03 ± 0.062,2.06 ± 0.086,1.34 ± 0.059
HINKIPSNSTTTLHGPG [SRB8],2.89 ± 0.059,3.17 ± 0.059,2.96 ± 0.052,3.11 ± 0.039
HIPRLIPKQLLDDEKIF [YJL039C/NUP192],1.44 ± 0.18,1.54 ± 0.088,1.87 ± 0.19,1.31 ± 0.08
HIQEEEEQDVDMTGDEE [RPC19],3.38 ± 0.15,3.35 ± 0.13,3.05 ± 0.075,3.27 ± 0.063
HKDSFYDRATLTQLLSM [RPO31],1.79 ± 0.066,2.09 ± 0.062,2.09 ± 0.071,1.35 ± 0.04
HKKDRLQYLPLYAVSTF [SIR4],1.59 ± 0.035,1.66 ± 0.035,1.35 ± 0.054,1.89 ± 0.037
HKLDLAKRNLDANPSSQ [SMC2],1.86 ± 0.052,2.24 ± 0.065,1.67 ± 0.091,1.66 ± 0.035
HKQISAEDLTIAAKTHI [SIN4],3.03 ± 0.12,3.1 ± 0.079,3.35 ± 0.084,2.76 ± 0.088
HKSGKLSVKIGNVVMDI [RPC53],1.53 ± 0.1,1.25 ± 0.073,1.07 ± 0.2,
HLCSGILSSVNRTVLLK [SRB8],1.42 ± 0.073,1.67 ± 0.15,1.41 ± 0.17,1.67 ± 0.047
HLERNRKDKDAKFRLIL [RPS13],3.22 ± 0.12,3.06 ± 0.13,3.38 ± 0.24,3.52 ± 0.2
HLGCVPIGEAGDFGGWF [RIP1],2.81 ± 0.12,3.08 ± 0.11,2.7 ± 0.11,3.06 ± 0.14
HLLSINYGEKEERKRWA [PCI8],3.17 ± 0.11,3.13 ± 0.096,3.41 ± 0.18,3.4 ± 0.095
HLNFPNVKFLRIFISNV [SNF12],1.79 ± 0.071,1.26 ± 0.094,1.27 ± 0.13,1.19 ± 0.087
HLSHPGTNKDMILKLVC [ECM29],1.52 ± 0.049,1.45 ± 0.035,1.32 ± 0.09,1.91 ± 0.045
HLSYCSNLTIYPIYELL [GRR1],2.54 ± 0.071,2.87 ± 0.1,3.17 ± 0.062,3.06 ± 0.074
HNAGPVAGAGAASGAAA [RPP1B],3.11 ± 0.11,2.24 ± 0.05,2.22 ± 0.12,2.02 ± 0.059
HNMLNLLIHRKGLTYLH [PRP8],1.33 ± 0.08,1.45 ± 0.038,1.6 ± 0.1,1.66 ± 0.049
HPFGHALVAGIERYPSK [RPL27B],2.43 ± 0.14,2.67 ± 0.1,2.24 ± 0.16,2.46 ± 0.17
HPIRLYTRYLDRIYMLF [PRP8],2.63 ± 0.067,1.76 ± 0.063,2.29 ± 0.1,2.4 ± 0.042
HPWEQAKEVKVLYHTSG [PRP8],2.81 ± 0.23,2.78 ± 0.14,3.03 ± 0.085,2.9 ± 0.091
HQGTPLGSHSSSQKDGN [REC8],3.21 ± 0.094,3.29 ± 0.093,2.88 ± 0.13,3.35 ± 0.089

Sequence,protein stability index (doa10∆),protein stability index (pdr5∆),protein stability index (san1∆),protein stability index (ubr1∆)
HRKHIAVLKKIQSKAVE [YCG1],2.55 ± 0.11,2.81 ± 0.097,2.69 ± 0.1,2.57 ± 0.064
HRLKLCKSLISENEDTK [CSE2],2.91 ± 0.17,3.24 ± 0.27,2.42 ± 0.2,
HRSGKIVVQLNGRLNKC [RPS22A],,3.52 ± 0.23,2.98 ± 0.13,3.36 ± 0.13
HSQFMKDLKDDSIYTKP [YJL039C/NUP192],2.83 ± 0.045,3.02 ± 0.05,3.02 ± 0.044,2.93 ± 0.038
HSRILPKKALKVKAGVR [RRP43],1.73 ± 0.046,1.63 ± 0.054,1.57 ± 0.082,1.6 ± 0.032
HTEDTVNESRNSDDIID [SRB5],2.31 ± 0.061,2.52 ± 0.056,2.43 ± 0.071,2.46 ± 0.055
HTLALEFVNGGKVVKNV [RRP46],2.2 ± 0.18,2.22 ± 0.074,2.19 ± 0.29,2.14 ± 0.13
HTPTIASYLTPLLEAKK [SSN2],3.04 ± 0.063,3.04 ± 0.051,3.01 ± 0.049,3.07 ± 0.048
HTSPHQPSDVKPTSHKQ [SIR4],2.76 ± 0.057,3.08 ± 0.059,2.9 ± 0.047,2.52 ± 0.044
HVDSLIEDFVDGIANSK [SRB7],3.06 ± 0.1,3.3 ± 0.077,3.04 ± 0.059,3.08 ± 0.057
HVINVGKTWEKLVLAAR [RPS0A],3.41 ± 0.15,3.49 ± 0.21,3.39 ± 0.13,3.12 ± 0.098
HVKAGKGLIKVNGSPIT [RPS16A],2.62 ± 0.065,2.78 ± 0.059,2.87 ± 0.061,3.1 ± 0.051
HVKIRATGGTRTKTPGP [RPS14B],1.38 ± 0.13,1.84 ± 0.15,2.25 ± 0.25,
HVLKTVDYGGAEWSLVR [SNU114],3.09 ± 0.19,3.42 ± 0.21,3.11 ± 0.18,1.31 ± 0.29
HVNKRKRVSGTSQHSDS [YOR098C/NUP1],1.93 ± 0.077,2.31 ± 0.11,2.22 ± 0.1,1.64 ± 0.076
HVTQEDFELAVGKVMNK [RPT6],2.83 ± 0.17,2.82 ± 0.13,2.62 ± 0.13,2.69 ± 0.15
HVVGRIAEVGNKRWKVD [RRP4],,3 ± 0.17,2.89 ± 0.16,2.67 ± 0.082
HYLVNLTSPAFGPHVDV [GRR1],2.27 ± 0.14,2.87 ± 0.12,2.16 ± 0.25,3.42 ± 0.28
HYPEIEDLVDRIENPEK [RPP0],2.84 ± 0.1,3.17 ± 0.081,2.97 ± 0.12,3.05 ± 0.072
IAAIIGRLNTLVISLAA [IRR1],2.1 ± 0.035,1.99 ± 0.036,2.31 ± 0.052,1.77 ± 0.03
IAATGLNQINGLNNDFL [GRR1],3.34 ± 0.17,3.26 ± 0.14,3 ± 0.1,3.19 ± 0.12
IAAYIRRHRNPDLQFIV [SMC1],1.16 ± 0.048,1.21 ± 0.047,1.2 ± 0.079,1.07 ± 0.04
IADLDTEAEETSIHSTI [RRP43],3.76 ± 0.18,2.56 ± 0.17,3.54 ± 0.11,3.38 ± 0.15
IAGHDEFNGFSLYQVDP [PRE8],3.15 ± 0.09,3.31 ± 0.15,3.21 ± 0.11,2.94 ± 0.095
IAGTFNVGKPDQSIASG [YOR098C/NUP1],3.14 ± 0.1,2.68 ± 0.18,2.96 ± 0.063,2.98 ± 0.082
IAGVITRSKRLSQVYPT [CSN12],2.91 ± 0.18,2.84 ± 0.11,3.11 ± 0.12,3.01 ± 0.071
